Data on nine molecules can be found in paper PMC12017989, “Carbohydrate deacetylase, a key enzyme in oxidative chitin degradation, is evolutionarily linked to amino acid deacetylase [drawing 1]” (The Journal of Biological Chemistry, 2025).

The Km is the substrate concentration at which the rate is half of its maximum. For orientation: Vmax means the rate approached at saturating substrate. As a reminder, the kcat is the number of substrate molecules converted per active site and unit of time at saturation. One may read the kcat/Km as the second-order rate constant that governs catalysis at low substrate concentration.

Substitutions are numbered along the chain they refer to. Names may count otherwise.

Data set [1] concerns the target T1, PpOngB (Pseudoalteromonas prydzensis, UniProt Z9WEX2YQL1, D368A).
T1 construct: pET-22b, His tag; E. coli BL21(DE3); residues 7-482 seen in crystal; one Zn
T1 sequence (Z9WEX2YQL1 1-489 D368A): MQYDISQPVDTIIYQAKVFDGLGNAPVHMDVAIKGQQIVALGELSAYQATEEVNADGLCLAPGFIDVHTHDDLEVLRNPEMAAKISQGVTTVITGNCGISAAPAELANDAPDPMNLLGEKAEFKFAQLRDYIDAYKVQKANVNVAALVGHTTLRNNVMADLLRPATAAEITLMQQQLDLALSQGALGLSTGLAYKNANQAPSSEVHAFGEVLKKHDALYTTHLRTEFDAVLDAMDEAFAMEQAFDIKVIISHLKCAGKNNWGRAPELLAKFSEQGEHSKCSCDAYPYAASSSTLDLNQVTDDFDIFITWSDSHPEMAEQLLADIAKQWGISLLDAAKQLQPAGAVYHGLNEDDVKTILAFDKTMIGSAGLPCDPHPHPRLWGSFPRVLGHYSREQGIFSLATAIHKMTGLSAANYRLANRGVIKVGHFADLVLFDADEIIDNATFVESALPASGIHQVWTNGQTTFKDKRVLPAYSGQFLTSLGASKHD
Nature of the data set: X-ray crystal structure, […] Å. The format is binding. The settings on record: inactive mutant cocrystallised; active site, open-chain aldonic acid coordinating zinc.

Data set [2] concerns CC(=O)N[C@@H](C(=O)O)[C@@H](O)[C@H](O)[C@H](O)CO. Briefly: purified protein. As to conditions: 10 mM Bis-Tris pH 7.5, 30 °C, 2-120 mM substrate, Zn enzyme.
Data set [3] deals with T2, AfDam (Alcaligenes faecalis, UniProt Q9AGH8).
T2 sequence (Q9AGH8 1-484): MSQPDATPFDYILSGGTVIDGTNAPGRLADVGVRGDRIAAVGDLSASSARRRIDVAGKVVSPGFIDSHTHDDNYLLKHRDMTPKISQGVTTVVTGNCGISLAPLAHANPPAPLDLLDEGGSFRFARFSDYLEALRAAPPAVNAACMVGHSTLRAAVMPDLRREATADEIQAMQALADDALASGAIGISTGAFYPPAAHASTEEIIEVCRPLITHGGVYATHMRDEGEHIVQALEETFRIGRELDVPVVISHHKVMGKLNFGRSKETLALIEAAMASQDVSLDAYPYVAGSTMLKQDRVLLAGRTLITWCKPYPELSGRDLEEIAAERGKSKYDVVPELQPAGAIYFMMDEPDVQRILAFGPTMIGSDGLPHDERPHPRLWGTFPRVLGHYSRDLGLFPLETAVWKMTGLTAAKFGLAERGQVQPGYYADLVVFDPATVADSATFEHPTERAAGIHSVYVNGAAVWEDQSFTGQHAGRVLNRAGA
Nature of the data set: deacetylase activity assay. The format is biochemical. The settings on record: 10 mM substrate, 10 mM Bis-Tris pH 7.0, 40 °C.

The target of data set [4] is T3, BbDam (Bordetella bronchiseptica, UniProt A0A0H3LXD5).
T3 construct: gene BB3285
T3 sequence (A0A0H3LXD5 entry or part of it): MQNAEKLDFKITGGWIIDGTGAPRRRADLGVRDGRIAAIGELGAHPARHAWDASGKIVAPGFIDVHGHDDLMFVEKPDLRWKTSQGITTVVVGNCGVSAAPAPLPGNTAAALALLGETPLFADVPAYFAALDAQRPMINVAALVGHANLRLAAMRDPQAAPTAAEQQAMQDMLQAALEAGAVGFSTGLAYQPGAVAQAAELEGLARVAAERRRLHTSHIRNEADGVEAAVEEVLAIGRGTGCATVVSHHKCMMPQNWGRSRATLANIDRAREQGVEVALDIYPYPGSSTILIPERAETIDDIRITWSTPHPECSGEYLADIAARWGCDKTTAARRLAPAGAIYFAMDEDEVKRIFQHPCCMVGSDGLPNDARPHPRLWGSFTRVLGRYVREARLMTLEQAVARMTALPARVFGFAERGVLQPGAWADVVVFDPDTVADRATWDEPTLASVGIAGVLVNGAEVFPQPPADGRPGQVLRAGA
Briefly: deacetylase activity assay. It counts as biochemical. As to conditions: 10 mM substrate, 50 mM Hepes pH 8.0, 30 °C.

Substrate in data set [5]: CC(=O)N[C@@H](C(=O)O)[C@@H](O)[C@H](O)[C@H](O)CO
Nature of the data set: ninhydrin assay of primary amine, Michaelis-Menten fit. It counts as biochemical, Pseudoalteromonas prydzensis. As to conditions: 10 mM Bis-Tris pH 7.5, 30 °C, 2-120 mM substrate, Zn enzyme. An excerpt:
ninhydrin assay of primary amine, Michaelis-Menten fit on PpOngB

Substrate in data set [6]: CC(=O)N[C@@H](C(=O)O)[C@@H](O)[C@H](O)[C@H](O)CO
The description is as above. It counts as biochemical, Pseudoalteromonas maricaloris. The settings on record: 10 mM Bis-Tris pH 7.5, 30 °C, 2-120 mM substrate, Zn enzyme. An excerpt:
ninhydrin assay of primary amine, Michaelis-Menten fit on PfOngB

As for `CC(=O)N[C@@H](C(=O)O)[C@@H](O)[C@H](O)[C@H](O)CO` [GlcNAc1A, 2-(acetylamino)-2-deoxy-D-gluconic acid], the “X-ray crystal structure, 2.29 Å” value in data set [1] is listed as “crystal structure of PpOngB in complex with GlcNAc1A (the PpOngB-GlcNAc1A complex)”.

Consider PaOngB (Pseudoalteromonas arabiensis), for which, in data set [2], the Km worked out at 9.1 ± 0.8 mM, the Vmax was 6.3 µmol/min/mg, the kcat was 5.5 ± 0.3 s⁻¹ and the kcat/Km amounted to 600 M⁻¹ s⁻¹.

With `CSCC[C@@H](NC(C)=O)C(=O)O` [N-acetyl-D-methionine], the deacetylase activity assay entry in data set [3] is “enzymatic activities of AfDam and its mutants”.

Take `CC(=O)N[C@H](CCC(=O)O)C(=O)O` [N-acetyl-D-glutamate]: the deacetylase activity assay entry in data set [4] was “enzymatic activities of BbDam and its mutants”.

B1: PpOngB (Pseudoalteromonas prydzensis) (protein)
chain: T1 sequence (Z9WEX2YQL1 1-489 D368A) with A368D
notes: pET-22b, His tag; E. coli BL21(DE3); residues 7-482 seen in crystal; one Zn
With B1, in data set [5], the Km is recorded as 9.8 ± 0.8 mM, the Vmax came to 17.4 µmol/min/mg, the kcat was found to be 15.4 ± 1.3 s⁻¹ and the kcat/Km is 1600 M⁻¹ s⁻¹.

B2: PpOngB (Pseudoalteromonas prydzensis; Q298A) (protein)
chain: T1 sequence (Z9WEX2YQL1 1-489 D368A) with Q298A, A368D
notes: as for B1
In the case of B2, in data set [5], the Km worked out at 59.7 ± 5.0 mM, the Vmax was found to be 7.7 µmol/min/mg and the catalytic constant (kcat) was determined as 6.8 ± 0.6 s⁻¹.

B3: PpOngB (Pseudoalteromonas prydzensis; Q298N) (protein)
chain: T1 sequence (Z9WEX2YQL1 1-489 D368A) with Q298N, A368D
notes: as for B1
Take B3: in data set [5], the Km stood at 53.4 ± 2.5 mM, the Vmax came out at 9.4 µmol/min/mg and the kcat was 8.3 ± 0.3 s⁻¹.

B4: PpOngB (Pseudoalteromonas prydzensis; S292T) (protein)
chain: T1 sequence (Z9WEX2YQL1 1-489 D368A) with S292T, A368D
notes: as for B1
For B4, in data set [5], the Km is on record as 54.2 ± 1.8 mM, the Vmax was 1.3 µmol/min/mg and the kcat stood at 1.1 ± 0.1 s⁻¹.

B5: PfOngB (Pseudoalteromonas maricaloris) (protein)
chain: MLSSSPYVDTLIQGATVYFEPDSEAQVVDVAISKDKIVALGNCSHLQALQCIDATGLVLAPGFIDVHTHDDLEVLRGPYMLSKVSQGVTTVIAGNCGISAVPYCADQAPLDPINLLGEQSEFAYRELQDYQHAFSKAAPSVNLATLVGHTTLRAQVMTDLSQAANAQELEQMKTLLHQAMAQGAIGFSTGLAYYNAKGASQAEVNALAEVVTPFDGIYTTHLRTEFQGVIRAMDEAFATAEHAKLPLVISHIKCAGRENWGRAPEVLAHFELHRKTHPVSCDCYPYAASSSTLDLNQVTEETDIFITWSESHPELAQQSLANIATQWQVSQRDAAKRLQPAGAVYHCMLEDDVQRFVSYEHSMVGSDGLPCDPHPHPRLWGTFPRVLGHYCREQQSLPLALAIHKMTALPAARFKLRQRGNIQIGYFADLVLFDPNRVLDQASYSNPKQLASGIVKVWVNGKLSYVEGANADTIVDFGRAGRFLTRQN
notes: recombinant, cloned like PpOngB (pET-22b, His tag)
Turning to B5, in data set [6], the Michaelis-Menten constant (Km) is listed as 17.2 ± 1.0 mM, the Vmax came to 13.4 µmol/min/mg, the kcat amounted to 11.9 ± 0.7 s⁻¹ and the kcat/Km turned out to be 700 M⁻¹ s⁻¹.
